Data set [1] deals with BPV-1 E1 helicase domain (E1HD), residues 299-605 (bovine papillomavirus (BPV-1)) (UniProt P03116). In words: SEC.
The target of data set [2] is T1, E1HD (E1 helicase domain) (bovine papillomavirus BPV-1, UniProt P03116 299-605). The data set is described as follows: EMSA.
Data set [3] has as its target T1, E1HD (E1 helicase domain). In words: gel filtration.

Consider three molecules from PMC3300016.

T1 sequence (P03116 299-605): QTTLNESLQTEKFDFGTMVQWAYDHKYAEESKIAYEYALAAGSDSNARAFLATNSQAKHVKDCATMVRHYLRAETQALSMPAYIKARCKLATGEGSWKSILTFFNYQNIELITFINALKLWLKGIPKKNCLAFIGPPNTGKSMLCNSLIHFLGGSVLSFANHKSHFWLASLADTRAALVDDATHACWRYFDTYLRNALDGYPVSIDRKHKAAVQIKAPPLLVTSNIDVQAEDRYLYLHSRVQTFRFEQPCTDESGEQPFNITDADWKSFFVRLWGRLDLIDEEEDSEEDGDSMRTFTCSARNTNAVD

As to “BPV-1 E1 helicase domain (E1HD), residues 299-605 (from UniProt P03116 299-605) (domain or fragment)”, the stoichiometry N in data set [1] came to 6. With TTTTTTTTTTTTTTTTTTTTTTTTTTTTTT (ssDNA) [T30], the binding result in data set [2] was “binds”. For the molecule TTTTTTTTTTTTTTTTTT (ssDNA) [T18], the binding result in data set [3] was “binds”.
